{"source": "paper PMC3821671", "about": "(Bacteriophage, 2013)", "binders": {"B1": {"name": "his-tagged WT Psu (polarity suppression protein, bacteriophage P4 capsid decorating protein) (natural protein)", "chain": "MESTALQQAFDTCQNNKAAWLQRKNELAAAEQEYLRLLSGEGRNVSRLDELRNIIEVRKWQVNQAAGRYIRSHEAVQHISIRDRLNDFMQQHGTALAAALAPELMGYSELTAIARNCAIQRATDALREALLSWLAKGEKINYSAQDSDILTTIGFRPDVASVDDSREKFTPAQNMIFSRKSAQLASRQSV"}}, "molecular_target": "P167L Rho (E. coli, UniProt P0AG30 1-419, P167L)", "assay": "pull-down"}
{"binder": "B1", "values": [{"measurement": "binding result", "result": "binds"}]}
